Consider two molecules from article PMC11697113, “The Hsc70 system maintains the synaptic SNARE protein SNAP-25 in an assembly-competent state and delays its aggregation [image fx2.gif]” (The Journal of Biological Chemistry, 2024).

The test concerns the target T1, heat shock cognate 70 (Hsc70), human constitutively expressed Hsp70, wild type (human, UniProt P11142 1-646).
T1 construct: Hsc70, the human constitutively expressed Hsp70; also called WT Hsc70; His-Hsc70 (before cleavage); source: E. coli Rosetta (DE3), purified (Ni-NTA, TEV cleavage, second Ni-NTA)
As to the kind of experiment: NMR titration; methyl-TROSY (1H-13C HMQC) spectra of Ile δ1-13CH3-labeled Hsc70 (40 μM) without and with unlabeled peptide; 10 mM potassium phosphate pD 7.4, 5 mM DTT, D2O, 25 °C, 600 MHz. The note with it: both partners purified.

T1 sequence (P11142 whole entry): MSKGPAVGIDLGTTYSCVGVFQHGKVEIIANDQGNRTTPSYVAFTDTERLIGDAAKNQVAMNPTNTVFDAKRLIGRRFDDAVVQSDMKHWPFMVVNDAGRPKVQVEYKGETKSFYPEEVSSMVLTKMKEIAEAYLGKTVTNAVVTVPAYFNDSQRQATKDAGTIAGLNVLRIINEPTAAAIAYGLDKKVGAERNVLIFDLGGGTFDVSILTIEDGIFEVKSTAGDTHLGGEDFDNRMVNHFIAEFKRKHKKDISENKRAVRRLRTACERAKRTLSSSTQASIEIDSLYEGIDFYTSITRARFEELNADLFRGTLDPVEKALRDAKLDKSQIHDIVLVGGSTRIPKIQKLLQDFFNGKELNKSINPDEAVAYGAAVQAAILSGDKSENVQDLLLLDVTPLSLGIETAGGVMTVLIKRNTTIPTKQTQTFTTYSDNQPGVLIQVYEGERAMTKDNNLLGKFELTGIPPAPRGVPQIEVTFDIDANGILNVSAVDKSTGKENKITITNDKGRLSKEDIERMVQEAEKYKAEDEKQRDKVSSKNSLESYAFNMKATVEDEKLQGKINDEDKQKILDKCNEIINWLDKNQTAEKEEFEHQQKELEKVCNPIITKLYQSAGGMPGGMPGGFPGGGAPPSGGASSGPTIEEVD

B1: SNNP peptide of SNAP-25 (peptide)
peptide: RRMLQLVEESK
notes: also called SNN peptide; source: synthetic peptide
As to B1, the binding result is reported as “binds”.

B2: SNCP peptide of SNAP-25 (LOOP-SNC site) (peptide)
peptide: EREQMAISGGFIRR
notes: also called SNC peptide; LOOP-SNC peptide; source: synthetic peptide
B2: the binding result is on record as “binds”.
